Measured values as given in patent US20250243243A1, “DISRUPTION OF SONIC HEDGEHOG-SURF4 INTERACTION FOR CANCER TREATMENT” (The Hong Kong University of Science and Technology, priority 2022, published 2025).

biological target: ShhN^1-198-HA (mouse) (UniProt Q62226); assay: anti-HA immunoprecipitation from HEK293T lysate, label-free quantitative mass spectrometry; 1 unique peptide; Control Group, IGF2 Group and Abundance Ratio not given
Sequence (Q62226 25-198): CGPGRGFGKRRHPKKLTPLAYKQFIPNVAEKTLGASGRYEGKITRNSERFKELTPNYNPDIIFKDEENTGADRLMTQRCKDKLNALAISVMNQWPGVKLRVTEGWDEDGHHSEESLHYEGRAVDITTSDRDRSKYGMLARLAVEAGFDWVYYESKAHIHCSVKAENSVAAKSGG

Substance	abundance in The ShhN Group
VPS51 (from UniProt Q9UID3)	45400
GRIA1 (from UniProt P42261) (receptor)	19800
PPIB (from UniProt P23284) (enzyme)	8940
BHMT (from UniProt Q93088) (enzyme)	2060
